Results published in US20170258835A1.

B1: 4A11-4D5-4 (bispecific antibody, part only; not given: anti-ErbB2 scFv 4D5-4 and linker, not shown: another chain or arm of the molecule; small tags and cut ends)
scFv: DIQMTQSPSSLSASVGDRVSITCRASQGISSWLAWYQQKPEKAPKSLIYAASNLRSGVPSRFSGSGSGTDFTLTISSLQPEDFATYYCQQYYSYPRTFGQGTKVEIKGGGGSGGGGSGGGGSQLQLQESGPGLVKPSETLSLTCTVSGGSLSRSSFFWGWIRQPPGKGLEWIGSIYYSGSTYYNPSLKSRVTISVDTSKNQFSLKLSSVTAADTAVYYCVRDYDILTGDEDYWGQGTLVTVSS
B2: 4A11-4D5-3 (bispecific antibody, part only; not given: anti-ErbB2 scFv 4D5-3 and linker, not shown: another chain or arm of the molecule; small tags and cut ends)
scFv: B1 scFv

Target: PD1-Z CLEAR
Sequence (chain, as listed by the source limits assumed): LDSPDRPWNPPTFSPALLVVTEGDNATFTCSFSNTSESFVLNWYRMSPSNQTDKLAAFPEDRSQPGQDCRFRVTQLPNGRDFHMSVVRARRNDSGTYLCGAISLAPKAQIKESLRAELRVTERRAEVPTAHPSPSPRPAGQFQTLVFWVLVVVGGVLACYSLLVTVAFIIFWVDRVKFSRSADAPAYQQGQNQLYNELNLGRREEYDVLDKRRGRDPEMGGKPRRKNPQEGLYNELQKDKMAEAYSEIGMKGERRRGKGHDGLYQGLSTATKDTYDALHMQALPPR
Test: flow cytometry, T cells 18 h after co-electroporation of PD1-Z RNA and bi-specific antibody RNA, stained with anti-mouse IgG Fab PE and anti-PD1 APC; same quadrant in the controls: EP16 PD1-Z alone 2.42, EP20 No RNA 0.086

Binder | percent of cells PD1+ mIgG Fab+ (upper right quadrant)
B1 | 57.1
B2 | 35.6
